B1: F1*; the commonest letter at each place (parent)
chain: GAGACCGCAACTGAAAAGTTGTTATCACTTGTCGTAAGACACTTTGGATGGGTTGAAGTTCTGCACGTAGAAGCAAAAGGC

Variants of: B1
Experiment: fraction ligated after 30 min (ligated reads / total reads); higher = more ligase activity
Details: with F1*sub RNA substrate (template-directed ligation), 42 °C
Method: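 Chip-synthesised pool of F1* ligase ribozyme variants (all single and double substitutions, single, double and triple deletions in the catalytic core and GAA bulge, plus designed variants) was transcribed with T7 and reacted as a pool with excess substrate F1*sub for 30 min at 42 C in 50 mM EPPS pH 8.5, 25 mM MgCl2. Ligated and unligated bands were separated by PAGE, barcoded by RT and deep sequenced; fraction ligated = ligated reads / total reads per variant, relative activity = FL / FL of wild type (0.826). Sequences are the DNA template of the ribozyme.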

| Variant | fraction ligated |
| --- | --- |
| GAGACCGCAACTGAAAAGTTGTTATCACTGGTCGTAAGACACGTTGGATGGGTTGAAGTTCTGCACGTAGAAGCAAAAGGC [T30G T43G] | 0.795 |
| GAGACCGCAACTGAAAAGTTGTTATCACTGGTCGTAAGACACCTTGGATGGGTTGAAGTTCTGCACGTAGAAGCAAAAGGC [T30G T43C] | 0.794 |
| GAGACCGCAACTGAAAAGTTGTTATCACTGGTCGTAAGACACATTGGATGGGTTGAAGTTCTGCACGTAGAAGCAAAAGGC [T30G T43A] | 0.859 |
| GAGACCGCAACTGAAAAGTTGTTATCACTGGTCGTAAGACACTTTGAATGGGTTGAAGTTCTGCACGTAGAAGCAAAAGGC [T30G G47A] | 0.654 |
| GAGACCGCAACTGAAAAGTTGTTATCACTGGTCGTAAGACACTTTGTATGGGTTGAAGTTCTGCACGTAGAAGCAAAAGGC [T30G G47T] | 0.15 |
| GAGACCGCAACTGAAAAGTTGTTATCACTGGTCGTAAGACACTTTGCATGGGTTGAAGTTCTGCACGTAGAAGCAAAAGGC [T30G G47C] | 0.0588 |
| GAGACCGCAACTGAAAAGTTGTTATCACTGGCCGTAAGACACTTTGGATGGGTTGAAGTTCTGCACGTAGAAGCAAAAGGC [T30G T32C] | 0.784 |
| GAGACCGCAACTGAAAAGTTGTTATCACTGGGCGTAAGACACTTTGGATGGGTTGAAGTTCTGCACGTAGAAGCAAAAGGC [T30G T32G] | 0.865 |
| GAGACCGCAACTGAAAAGTTGTTATCACTGGACGTAAGACACTTTGGATGGGTTGAAGTTCTGCACGTAGAAGCAAAAGGC [T30G T32A] | 0.883 |
| GAGACCGCAACTGAAAAGTTGTTATCACTGGTTGTAAGACACTTTGGATGGGTTGAAGTTCTGCACGTAGAAGCAAAAGGC [T30G C33T] | 0.867 |
| GAGACCGCAACTGAAAAGTTGTTATCACTGGTAGTAAGACACTTTGGATGGGTTGAAGTTCTGCACGTAGAAGCAAAAGGC [T30G C33A] | 0.86 |
| GAGACCGCAACTGAAAAGTTGTTATCACTGGTGGTAAGACACTTTGGATGGGTTGAAGTTCTGCACGTAGAAGCAAAAGGC [T30G C33G] | 0.854 |
| GAGACCGCAACTGAAAAGTTGTTATCACTGCCGGTAACGGCCTTTGGATGGGTTGAAGTTCTGCACGTAGAAGCAAAAGGC [T30G G31C T32C C33G G38C A39G C40G A41C] | 0.797 |
| GAGACCGCAACTGAAAAGTTGTTATCACTGGTCGTAAAACACTTTGGATGGGTTGAAGTTCTGCACGTAGAAGCAAAAGGC [T30G G38A] | 0.843 |
| GAGACCGCAACTGAAAAGTTGTTATCACTGGTCGTAACACACTTTGGATGGGTTGAAGTTCTGCACGTAGAAGCAAAAGGC [T30G G38C] | 0.805 |
| GAGACCGCAACTGAAAAGTTGTTATCACTGGTCGTAATACACTTTGGATGGGTTGAAGTTCTGCACGTAGAAGCAAAAGGC [T30G G38T] | 0.816 |
| GAGACCGCAACTGAAAAGTTGTTATCACTGGTCGTAAGACACTATGGATGGGTTGAAGTTCTGCACGTAGAAGCAAAAGGC [T30G T44A] | 0.831 |

| Variant | fraction ligated |
| --- | --- |
| GAGACCGCAACTGAAAAGTTGTTATCACTGGTCGAAAGACACTTTGGATGGGTTGAAGTTCTGCACGTAGAAGCAAAAGGC [T30G T35A] | 0.845 |
| GAGACCGCAACTGAAAAGTTGTTATCACTGGTCGGAAGACACTTTGGATGGGTTGAAGTTCTGCACGTAGAAGCAAAAGGC [T30G T35G] | 0.847 |
| GAGACCGCAACTGAAAAGTTGTTATCACTGGTCGCAAGACACTTTGGATGGGTTGAAGTTCTGCACGTAGAAGCAAAAGGC [T30G T35C] | 0.813 |
| GAGACCGCAACTGAAAAGTTGTTATCACTGGTCGTAAGACCCTTTGGATGGGTTGAAGTTCTGCACGTAGAAGCAAAAGGC [T30G A41C] | 0.834 |
| GAGACCGCAACTGAAAAGTTGTTATCACTGGTCGTAAGACGCTTTGGATGGGTTGAAGTTCTGCACGTAGAAGCAAAAGGC [T30G A41G] | 0.84 |
| GAGACCGCAACTGAAAAGTTGTTATCACTGGTCGTAAGACTCTTTGGATGGGTTGAAGTTCTGCACGTAGAAGCAAAAGGC [T30G A41T] | 0.82 |
| GAGACCGCAACTGAAAAGTTGTTATCACTGGTCGTAAGACACTTTGGCTGGGTTGAAGTTCTGCACGTAGAAGCAAAAGGC [T30G A48C] | 0.761 |
| GAGACCGCAACTGAAAAGTTGTTATCACTGGTCGTAAGACACTTTGGGTGGGTTGAAGTTCTGCACGTAGAAGCAAAAGGC [T30G A48G] | 0.791 |
| GAGACCGCAACTGAAAAGTTGTTATCACTGGTCGTAAGACACTTTGGTTGGGTTGAAGTTCTGCACGTAGAAGCAAAAGGC [T30G A48T] | 0.796 |
| GAGACCGCAACTGAAAAGTTGTTATCACTGGCCGTAAGGCCCTTTGGATGGGTTGAAGTTCTGCACGTAGAAGCAAAAGGC [T30G T32C A39G A41C] | 0.803 |
| GAGACCGCAACTGAAAAGTTGTTATCACTGCCCGTAAGGGCCTTTGGATGGGTTGAAGTTCTGCACGTAGAAGCAAAAGGC [T30G G31C T32C A39G C40G A41C] | 0.846 |
| GAGACCGCAACTGAAAAGTTGTTATCACTGGTCATAAGACACTTTGGATGGGTTGAAGTTCTGCACGTAGAAGCAAAAGGC [T30G G34A] | 0.825 |
| GAGACCGCAACTGAAAAGTTGTTATCACTGGTCCTAAGACACTTTGGATGGGTTGAAGTTCTGCACGTAGAAGCAAAAGGC [T30G G34C] | 0.795 |
| GAGACCGCAACTGAAAAGTTGTTATCACTGGTCTTAAGACACTTTGGATGGGTTGAAGTTCTGCACGTAGAAGCAAAAGGC [T30G G34T] | 0.796 |
| GAGACCGCAACTGAAAAGTTGTTATCACTGCGGGTAACCGCCTTTGGATGGGTTGAAGTTCTGCACGTAGAAGCAAAAGGC [T30G G31C T32G C33G G38C A39C C40G A41C] | 0.828 |
| GAGACCGCAACTGAAAAGTTGTTATCACTGGTCGTAAGAAACTTTGGATGGGTTGAAGTTCTGCACGTAGAAGCAAAAGGC [T30G C40A] | 0.854 |
| GAGACCGCAACTGAAAAGTTGTTATCACTGGTCGTAAGAGACTTTGGATGGGTTGAAGTTCTGCACGTAGAAGCAAAAGGC [T30G C40G] | 0.81 |

From the supplement of paper PMC6755084
